Laboratory results reported in patent publication US6670160B2, “α1,2-fucosyltransferase” (priority 1998, dated 2003).
Values joined by “and” are separate entries in the source; they are usually repeats but may differ in a detail not shown here. Equal entries are not always repeated.

What was measured:
Format in all cases: biochemical
[1] = Fucosyltransferase assay (GDP-[3H]fucose), acceptor LacNAc
Experimental: (§1) In a typical experiment, E. coli CLM4 (pGP1-2) cells haboring a plasmid carrying an H. pylori fucT gene (pBKHp763fucT39, pGEMH2, pGEMI6 or pGEMB3) were grown in 25 ml liquid LB medium with appropriate antibiotics (kanamycin and ampicillin) at 30° C. to an optical density of 0.5-0.7 at 600 nm. After being collected, the cells were washed once with M9 medium, resuspended in 5 ml of supplemented M9 medium, and farther incubated at 30° C. for 1 h. To induce the expression of the fucT gene, the cell culture was shifted to 42° C. by adding 5 ml prewarmed (55° C.) supplemented M9 medium. After incubation at 42° C. for 15 min, rifampicin was added to a final concentration of 200 μg/ml, and cell growth was continued at 42° C. for 20 min.
(§2) For analysis of the protein on SDS-PAGE, a small aliquot (0.5 ml) of the cell culture was taken, and 2.5 μl of [^35S]-methionine (4.35×10^13 Bq/mmol, 3.7×10^8 Bq/ml, NEN™, Boston, Mass.) was added. After further growth at 30° C. for 30 min, the cells were harvested, resuspended in 100 μl sample buffer (50 mM Tris-HCl, pH6.8, 1% (w/v) SDS, 20 mM EDTA, 1% (v/v) mercaptoethanol, 10% (v/v) glycerol), and boiled for 3 min before loading on to the gel. For the preparation of the sample for the enzyme assay, the remaining part (major aliquot, 9.5 ml) of the cell culture after induction was further incubated at 30° C. for 30 min, then harvested. The cells were washed with 1.5 ml of 20 mM HEPES (pH 7.0), and resuspended in 1.5 ml of this buffer supplemented with 0.5 mM PMSF.
(§3) Preparation of cell lysates or cell extracts for the fucosyltransferase assay. […]
(§4) Assays of Hp α1,2 and a 1,3 FucT activities were carried out according to the method described by Chan et al. (1995, Glycobiology 5:683-688) with some modifications. […] For calculation of the specific activity of the enzyme (micro-units per milligram protein), protein concentrations of the cell extracts were determined with a BCA protein assay kit (Pierce, Rockford, Ill.) using BSA as a standard according to the supplier's instructions.

[2] = Fucosyltransferase assay (GDP-[3H]fucose), acceptor Le^X; settings: for total activity: from 25 ml cell culture
Experimental: as §1, §2
(§5) Preparation of cell lysates or cell extracts for the fucosyltransferase assay. The E. coli cells containing overproduced Hp FucT proteins, which were in HEPES buffer with PMSF as described above, were disrupted with a French press at 7000 lb/in^2 at 4° C. The cell lysates were used directly for enzyme assays. For determining the location of the enzyme activities, the cytoplasmic and membrane fractions were separated as follows. The cell lysates were centrifuged at 13,000× g at 4° C. for 10 min. The cell debris were discarded and the supernatant was subjected to ultracentrifugation at 128,000× g (Beckman TL100/rotor 100.2) at 4° C. for 1 h. The supernatant was collected as the cytoplasmic fraction. The membrane pellets were resuspended in a small volume of the same buffer and treated with 1 M NaCl.
(§6) Assays of Hp α1,2 and a 1,3 FucT activities were carried out according to the method described by Chan et al. (1995, Glycobiology 5:683-688) with some modifications. Reactions were conducted at 37° C. for 20 min in a volume of 20 μl containing 1.8 mM acceptor, 50 μM GDP-fucose, 60000 dpm GDP-[^3H]fucose, 20 mM HEPES buffer (pH7.0), 20 mM MnCl2, 0.1 M NaCl, 35 mM MgCl2, 1 mM ATP, 5 mg/ml BSA, and 6.2 μl of the enzyme preparation. The acceptors used in this study were: LacNAc [βGal 1-4 βGlcNAc], Le^X [βGal 1-4 (α Fuc1-3) βGlcNAc], Type 1 [[…] 1-3 βGlcNAc], and Le^a [βGal 1-3 (α Fuc1-4) βGlcNAc]. GDP-[^3H]fucose (1.9×10^11 Bq/ml/mmol) was obtained from American Radiolabeled Chemicals Inc. (St. Louis, Mo.). Sep-Pak Plus C-18 reverse-phase cartridges were purchased from Waters (Mississauga, ON). For calculation of the specific activity of the enzyme (micro-units per milligram protein), protein concentrations of the cell extracts were determined with a BCA protein assay kit (Pierce, Rockford, Ill.) using BSA as a standard according to the supplier's instructions.

[3] = Fucosyltransferase assay (GDP-[3H]fucose), acceptor Type 1; settings: for total activity: from 25 ml cell culture
Experimental: as §1, §2, §5, §6

[4] = Fucosyltransferase assay (GDP-[3H]fucose), acceptor Le^a
Experimental: as §1, §2, §3, §4

[5] = Reaction products by capillary electrophoresis, TMR-labeled acceptor LacNAc; settings: acceptor LacNAc labeled with TMR; expected product H type 2
Description: (§7) The reaction products synthesized from different acceptors by the Hp α1,2 FucT were further characterized by capillary electrophoresis with laser-induced fluorescence detection. The reaction mixture contained the overproduced UA802 α1,2 FucT protein (from pGEMI6 clone), GDP-fucose, and different acceptors labeled with tetramethylrhodamine (TMR). The results (FIG. 7) confirmed the data from the enzyme assay using radioactive labeled GDP-fucose (Table 3B) by identifying the products of the reactions.

[6] = Reaction products by capillary electrophoresis, TMR-labeled acceptor Le^X; settings: acceptor Le^X labeled with TMR; peak co-migrated with standard Le^Y
Description: as §7

[7] = Reaction products by capillary electrophoresis, TMR-labeled acceptor Type 1; settings: acceptor Type 1 labeled with TMR; authentic product H type 1
Description: as §7

[8] = Reaction products by capillary electrophoresis, TMR-labeled acceptor Le^a; settings: acceptor Le^a labeled with TMR; authentic product Le^b
Description: as §7

[9] = acceptor Le^x, membrane fraction
[10] = acceptor Type 1, cytoplasm fraction

B1: α1,2FucT (UA802): H. pylori UA802 α1,2-fucosyltransferase (SEQ ID NO:2), overexpressed in E. coli from plasmid pGEMI6 (protein)
chain: MAFKVVQICGGLGNQMFQYAFAKSLQKHLNTPVLLDTTSFDWSNRKMQLELFPIDLPYANAKEIAIAKMQHLPKLVRDALKYIGFDRVSQEIVFEYEPKLLKPSRLTYFFGYFQDPRYFDAISSLIKQTFTLPPPPENNKNNNKKEEEYQRKLSLILAAKNSVFVHIRRGDYVGIGCQLGIDYQKKALEYMAKRVPNMELFVFCEDLKFTQNLDLGYPFTDMTTRDKEEEAYWDMLLMQSCKHGIIANSTYSWWAAYLMENPEKIIIGPKHWLFGHENILCKEWVKIESHFEVKSQKYNA
specific activity ([1]; E. coli whole cell extract containing the overexpressed FucT protein): 14 ± 8 μU/mg
α1,2 FucT activity (in words) ([1]; enzyme from pGEMI6): almost no activity was detected
relative activity ([1]; relative to UA802 α1,2 FucT on its best substrate Type 1): 4.5%
specific activity ([2]; acceptor Le^X, proposed product Le^Y, E. coli whole cell extract): 150 ± 33 μU/mg
α1,2 FucT activity (in words) ([2]; acceptor Le^X, enzyme from pGEMI6): considerable activity was observed
activity in the membrane fraction (in words) ([2]; acceptor Le^X, membrane fraction): no detectable activity
relative activity ([2]; acceptor Le^X, relative to UA802 α1,2 FucT on its best substrate Type 1): 49%
relative activity (percentage of the total activity) ([2]; acceptor Le^x, cytoplasm fraction): 100%
specific activity ([2]; acceptor Le^x, cytoplasm fraction of E. coli CLM4 (pGP1-2, pGEMI6), listed as H. pylori α1,2 FucT): 41 μU/mg protein and 38 μU/mg protein
total activity ([2]; acceptor Le^x, cytoplasm fraction, listed as H. pylori α1,2 FucT): 54 μU and 49 μU
relative activity (percentage of the total activity) [2, 9]: 0%
specific activity ([2]; acceptor Le^x, membrane fraction of E. coli CLM4 (pGP1-2, pGEMI6)): 0 μU/mg protein
total activity [2, 9]: 0 μU
specific activity ([3]; acceptor Type 1, proposed product H type 1, E. coli whole cell extract): 309 ± 28 μU/mg
relative activity (percentage of the total activity) [3, 10]: 100%
specific activity ([3]; acceptor Type 1, cytoplasm fraction of E. coli CLM4 (pGP1-2, pGEMI6)): 78 μU/mg protein
total activity [3, 10]: 108 μU
specific activity ([3]; acceptor Type 1, membrane fraction of E. coli CLM4 (pGP1-2, pGEMI6)): 8 μU/mg protein
total activity ([3]; acceptor Type 1, membrane fraction): 3 μU
relative activity (percentage of the total activity) ([3]; acceptor Type 1, membrane fraction, listed as H. pylori α1,2 FucT): 3%
relative activity (percentage of the total activity) ([3]; acceptor Type 1, membrane fraction, listed as Hp α1,2 FucT): less than 3%
relative activity ([3]; acceptor Type 1, relative to UA802 α1,2 FucT on its best substrate Type 1): 100%
activity compared to Le^X ([3]; acceptor Type 1 versus Le^X): 2 fold
activity compared to Le^X ([4]; acceptor Le^a versus Le^X): 2 fold
specific activity ([4]; acceptor Le^a, proposed product Le^b, E. coli whole cell extract): 301 ± 13 μU/mg
relative activity ([4]; acceptor Le^a, relative to UA802 α1,2 FucT on its best substrate Type 1): 97%
reaction product in electropherogram [5]: no reaction product representing H type 2 was observed
reaction product in electropherogram [6]: a small new peak was produced
reaction product in electropherogram [7]: new peaks co-migrating with authentic products
reaction product in electropherogram [8]: new peaks co-migrating with authentic products
